Source: paper PMC4650709

Target: Ara h 1 (peanut)
Test: SEC; purified Ara h 1; conditions not given

- stoichiometry N: 3
Substance: Ara h 1 (natural protein)
